From publication PMC7299630

B1: HTR2C RNA duplex probe (structured_RNA)
RNA: AUCAUGCACCUCUGCGCUAUAUCGCUGGAUCGGUAUGUAGCAAUACGUAAUCCUAUUGAGCAUAGCCGUUUCAAUUCGCGGACUAAGGCCAUCAUGAAGAUUGCUAUUGUUUGGGCAAUUUCUAUAGGUAAAUAAAACUUUUUGGCCAUAAGAAUUGCAGCGGCUAUGCUCAAUACUUUCGGAUUAUGUACUGUGAACAACGUACAGACGUCGACUGGUAACAUUUGCGUUUGAUCGGGUUCU
B2: MAGT1 RNA duplex probe (structured_RNA)
RNA: GCUAAUUUUUGUGUUUUUAGUAGAGACCUCGAGGUCUCUACUAAAAAUAUGAAAAUUAGC

Target: DAP3-GST (UniProt P51398 1-398)
Assay: EMSA

Binder | binding result
B1 | no binding
B2 | no binding
